Reference: PMC4764565

Biological target: EphB2-KD-GFP (UniProt P54763)
Assay: co-IP; anti-GFP antibody on ProteinA/G agarose, overnight, pre-cleared lysates of co-transfected HEK293 cells (10mM Tris-Cl pH 8, 137 mM NaCl, 2mM EDTA, 1% NP40); blot for Myc; in the ligand experiments cells were starved 2 hr in OPTIMEM and incubated 15 min at 37°C with pre-clustered Fc, eB2-Fc or eA3-Fc (1.5 μg/ml), Netrin-1 (250 ng/ml) or eB2-Fc+Netrin-1 before lysis

Chain of Unc5c-Myc (O08747 41-931): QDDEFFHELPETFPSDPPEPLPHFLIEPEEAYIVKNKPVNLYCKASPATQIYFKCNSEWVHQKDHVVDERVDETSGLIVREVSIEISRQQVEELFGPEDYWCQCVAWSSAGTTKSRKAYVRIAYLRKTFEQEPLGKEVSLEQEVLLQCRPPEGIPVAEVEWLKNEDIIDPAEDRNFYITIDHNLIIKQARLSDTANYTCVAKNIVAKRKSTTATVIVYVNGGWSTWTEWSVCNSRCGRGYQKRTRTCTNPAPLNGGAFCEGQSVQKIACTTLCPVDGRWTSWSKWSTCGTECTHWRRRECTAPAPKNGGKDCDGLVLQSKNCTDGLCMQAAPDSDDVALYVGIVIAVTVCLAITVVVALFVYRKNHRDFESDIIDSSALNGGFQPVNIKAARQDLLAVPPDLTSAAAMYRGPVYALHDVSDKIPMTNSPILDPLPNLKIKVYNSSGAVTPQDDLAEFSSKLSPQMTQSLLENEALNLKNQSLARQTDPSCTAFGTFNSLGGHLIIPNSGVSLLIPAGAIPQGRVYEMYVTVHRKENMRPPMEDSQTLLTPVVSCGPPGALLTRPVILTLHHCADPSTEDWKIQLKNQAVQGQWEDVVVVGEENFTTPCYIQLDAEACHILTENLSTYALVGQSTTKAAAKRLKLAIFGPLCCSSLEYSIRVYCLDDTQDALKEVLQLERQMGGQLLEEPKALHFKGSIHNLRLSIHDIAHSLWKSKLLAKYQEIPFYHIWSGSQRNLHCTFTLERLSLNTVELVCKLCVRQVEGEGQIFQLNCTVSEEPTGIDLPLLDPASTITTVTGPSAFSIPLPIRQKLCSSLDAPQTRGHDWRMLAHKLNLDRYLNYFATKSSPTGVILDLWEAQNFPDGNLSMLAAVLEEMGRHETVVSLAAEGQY
Chain of EphB2-KD-GFP (P54763 19-986): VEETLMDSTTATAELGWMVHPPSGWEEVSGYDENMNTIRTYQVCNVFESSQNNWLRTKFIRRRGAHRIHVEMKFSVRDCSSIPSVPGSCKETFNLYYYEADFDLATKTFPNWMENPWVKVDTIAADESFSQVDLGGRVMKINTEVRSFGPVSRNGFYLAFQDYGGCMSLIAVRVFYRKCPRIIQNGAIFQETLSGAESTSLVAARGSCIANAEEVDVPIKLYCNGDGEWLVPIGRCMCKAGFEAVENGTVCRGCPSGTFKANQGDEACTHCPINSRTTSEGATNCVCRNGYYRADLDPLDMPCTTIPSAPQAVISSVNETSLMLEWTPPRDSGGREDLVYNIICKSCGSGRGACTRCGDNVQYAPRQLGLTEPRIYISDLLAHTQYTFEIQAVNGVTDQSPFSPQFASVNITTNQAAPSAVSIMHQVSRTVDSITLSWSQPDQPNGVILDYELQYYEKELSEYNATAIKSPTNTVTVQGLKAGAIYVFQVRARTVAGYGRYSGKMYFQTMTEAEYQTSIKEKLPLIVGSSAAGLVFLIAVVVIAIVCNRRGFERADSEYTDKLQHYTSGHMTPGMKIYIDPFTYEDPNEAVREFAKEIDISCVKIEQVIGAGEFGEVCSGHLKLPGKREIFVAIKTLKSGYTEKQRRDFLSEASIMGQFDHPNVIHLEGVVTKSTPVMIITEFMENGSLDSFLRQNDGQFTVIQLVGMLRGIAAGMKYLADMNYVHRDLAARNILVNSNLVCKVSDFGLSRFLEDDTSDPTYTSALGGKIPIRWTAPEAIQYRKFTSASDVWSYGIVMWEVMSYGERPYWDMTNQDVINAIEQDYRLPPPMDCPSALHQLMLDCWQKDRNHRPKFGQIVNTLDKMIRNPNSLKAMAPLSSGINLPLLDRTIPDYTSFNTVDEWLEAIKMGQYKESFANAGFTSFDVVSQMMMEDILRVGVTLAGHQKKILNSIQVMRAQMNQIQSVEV

percent reduction of the interaction against wild-type EphB2-GFP: 67%
Substance: Unc5c-Myc (from UniProt O08747 41-931) (receptor)
